Measured values reported in article PMC11511902.
Where two headings read alike, the source gives them in different places.

Legend:
Assay in all cases: SPR
His6-gp1 [1] = target: T1, His6-gp1 (Bacillus thuringiensis phage GIL01 …, UniProt Q7WSG8 1-58)
T1 sequence: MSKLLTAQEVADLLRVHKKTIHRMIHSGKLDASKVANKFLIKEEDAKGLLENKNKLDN

His6-gp1 [2] = target: T1, His6-gp1; remark: listed apart in the source
His6-gp1 [3] = target: T1, His6-gp1; remark: listed apart in the source

B1: SPR_252Δ262 (cp33.14) 81-bp fragment (dsDNA)
DNA 1: GTTACTACTCGAGCGTGTAATATAAAAACATTTGCATTACTGGTAATATTGGTAGCAGAGAGGGACAAACGGGACAAATCGAGACACGATACATAC
DNA 2: GTATGTATCGTGTCTCGATTTGTCCCGTTTGTCCCTCTCTGCTACCAATATTACCAGTAATGCAAATGTTTTTATATTACA
DNA 3: CGCTCGAGTAGTAAC
binding result (His6-gp1 [1]): binds

B2: SPR_wt 81-bp P2 fragment (dsDNA)
DNA 1: GTTACTACTCGAGCGAACATTTGCATTACTGGTAACTTTCGGGTAATATTGGTAGCAGAGAGGGACAAACGGGACAAATCGAGACACGATACATAC
DNA 2: GTATGTATCGTGTCTCGATTTGTCCCGTTTGTCCCTCTCTGCTACCAATATTACCCGAAAGTTACCAGTAATGCAAATGTT
DNA 3: CGCTCGAGTAGTAAC
binding result (His6-gp1 [2]): binds

B3: SPR_172Δ355 (cp33.1) 81-bp fragment (dsDNA)
DNA 1: GTTACTACTCGAGCGAAAAGGAAAAGTGTGACAAGATATTCCAAGGGTGCTATAATAGGAAATGAGTAAACTACTGACTGCGCAAGAGGTTGCAGA
DNA 2: TCTGCAACCTCTTGCGCAGTCAGTAGTTTACTCATTTCCTATTATAGCACCCTTGGAATATCTTGTCACACTTTTCCTTTT
DNA 3: CGCTCGAGTAGTAAC
binding result (His6-gp1 [3]): no binding
